Sequences and labels used below:
T1: human CEACAM1 (as used in Surface Plasmon Resonance) (human)
T1 chain: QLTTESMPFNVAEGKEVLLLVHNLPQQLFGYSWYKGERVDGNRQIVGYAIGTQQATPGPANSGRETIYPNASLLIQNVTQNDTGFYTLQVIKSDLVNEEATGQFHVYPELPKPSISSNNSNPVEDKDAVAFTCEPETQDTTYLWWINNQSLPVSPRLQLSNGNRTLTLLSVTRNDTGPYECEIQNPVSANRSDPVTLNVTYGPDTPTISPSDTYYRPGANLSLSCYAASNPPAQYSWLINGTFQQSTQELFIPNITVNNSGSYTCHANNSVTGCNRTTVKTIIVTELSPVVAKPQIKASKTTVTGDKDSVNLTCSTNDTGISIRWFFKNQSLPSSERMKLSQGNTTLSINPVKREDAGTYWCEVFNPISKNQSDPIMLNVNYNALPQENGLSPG

B1: monoclonal antibody 36B11 (antibody, V domains shown)
VH: QIQLVQSGPDLKKPGETVKISCKASGYIFRNYGMNWVKQAPGKGLKWMGWINTYTGEPTYADDFKGRFAFSLETSASTAYLQINNLKNEDMATYFCARDCGTSHYYAMDYWGQGT
VL: DIQMTQTTSSLSASLGDRVTISCRASQDISNYLNWYQQKPDGTVKLLIYYTSRLHSGVPSRFSGSGSGTDYSLSISNLEQEDIATYFCQQGNTFPLTFGAGTKLDLKR
notes: the VH entry is cut short at its C-terminus; also called mAb 36B11
B2: monoclonal antibody 38B5 (antibody, V domains shown)
VH: QIQLVQSGPELKKPGETVKISCKASGYIFRNYGMNWVKQAPGKGLKWMGWINTYTGEPTYADDFKGRFAFSLETSASTAYLQINNLKNEDMATYFCARRGWLLTGGAMDYWGQGTSVTVSQ
VL: DIQMTQSPSSLSASLGERVSLTCRASQDIGSSLNWLQQEPDGTIKRLIYATSSLDSGVPKRFSGSRSGSDYSLTISSLESEDFVDYYCLQYVSSPWTFGGGTKLEIKR
notes: also called mAb 38B5
B3: monoclonal antibody 25C8 (antibody, V domains shown)
VH: QVQLQQSGAELVRPGTSVKVSCKASGYAFTIYLIEWVKQRPGQGLEWIGVINPGSGGTNYNEKFKGKATLTADKSSSTAFMQLSSLTSDDSAVYFCARSYYYGSFAMDYWGQGTSVTVSQ
VL: DVQMTQTISSLSASLGDRVTISCRASQDIGNYLNWYQQKPDGTVKLLIYYTSRLHSGVPSRFSGSGSGTDYSLTISNLEQEDIATYFCQQGNTLRTFGGGTKLEIKR
notes: also called mAb 25C8

The target of this experiment is T1, human CEACAM1 (as used in Surface …). The experiment can be described thus: Surface Plasmon Resonance.
B1 had a dissociation constant Kd of 1.42 nM, a koff of 0.000108 s⁻¹ and a kon of 76100 M⁻¹ s⁻¹.

As for B2, the Kd came to 0.589 nM, the off-rate constant (koff) is 0.000482 s⁻¹ and the kon was determined as 818000 M⁻¹ s⁻¹.

The molecule B3 yielded an equilibrium dissociation constant (Kd) of 3.88 nM, a koff of 0.000193 s⁻¹ and an on-rate constant (kon) of 49600 M⁻¹ s⁻¹.

Usually Kd stands for a measure of binding affinity in units of concentration. Broadly, the koff is a measure of how fast the partners let go of each other. A low value points to slow dissociation. The term kon denotes the second-order rate constant of association. A lower kon goes with slower complex formation.

Source of the values: patent US20210380687A1 (ALBERT EINSTEIN COLLEGE OF MEDICINE, published 2021).
